In paper PMC11485749 (mAbs, 2024):
Like-named read-outs stand apart in the source and are kept apart here. Blank lines part the entries; values can stand above or below the binder they belong to.

Key:
hCD200R1-iso4-Ref ECD [1] = target: T1, hCD200R1-iso4-Ref ECD (Homo sapiens, UniProt Q8TD46)
[2] = target: T2, recombinant MfCD200R1 ECD (Macaca fascicularis, UniProt G7NZT0); assay: SPR
[3] = target: T2, recombinant MfCD200R1 ECD; assay: SPR; remark: listed apart in the source
[4] = target: WT hCD200R1-iso4-Ref expressed on Expi293 cells (Homo sapiens, UniProt Q8TD46, strain); assay: flow cytometry on cells
hCD200R1-iso4-Ref ECD [5] = target: T1, hCD200R1-iso4-Ref ECD; assay: SPR

T1 sequence (Q8TD46 29-265): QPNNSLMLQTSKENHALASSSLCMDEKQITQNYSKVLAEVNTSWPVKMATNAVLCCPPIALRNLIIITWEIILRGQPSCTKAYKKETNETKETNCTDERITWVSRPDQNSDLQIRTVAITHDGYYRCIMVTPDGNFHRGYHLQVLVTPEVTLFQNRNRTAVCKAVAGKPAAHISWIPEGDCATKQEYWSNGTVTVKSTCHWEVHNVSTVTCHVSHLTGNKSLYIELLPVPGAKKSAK
Sequence of WT hCD200R1-iso4-Ref expressed on Expi293 cells (Q8TD46 whole entry, looked up, change not shown, the tested form may be a part): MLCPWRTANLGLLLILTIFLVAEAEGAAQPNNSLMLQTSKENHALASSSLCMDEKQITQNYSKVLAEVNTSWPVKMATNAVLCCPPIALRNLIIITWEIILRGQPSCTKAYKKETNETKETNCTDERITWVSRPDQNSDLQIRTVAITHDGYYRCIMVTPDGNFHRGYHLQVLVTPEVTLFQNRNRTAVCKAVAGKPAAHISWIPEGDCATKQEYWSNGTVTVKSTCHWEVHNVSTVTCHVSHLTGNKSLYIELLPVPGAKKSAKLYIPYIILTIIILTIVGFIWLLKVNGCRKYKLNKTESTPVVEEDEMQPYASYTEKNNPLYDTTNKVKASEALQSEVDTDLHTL

B1: 23ME-00611 (antibody, V domains shown)
VH: EVQLQESGPGLVKPSETLSLTCTVSGFSLTNYRVSWVRQPPGKGLEWLGVMYAGGGTNYNSVFKSRLTISKDNSKNQVSLKLSSVTAADTAVYYCARERPLTGVMDNWGQGTLVTVSS
VL: DIVLTQSPDSLAVSLGERATINCRASESVDYSGNSFMHWFQQKPGQPPKLLIYRASNLESGIPDRFSGSGSRTDFTLTISSLQAEDVAVYYCHQSNWDPPTFGGGTKVEIK
Kd (hCD200R1-iso4-Ref ECD [1]): 1 nM
Kd [2]: 2 nM

B2: 23ME-00610_E93W (antibody, V domains shown)
VH: EVQLQESGPGLVKPSETLSLTCTVSGFSLTNYAVSWVRQPPGKGLEWLGVMWAGGGTNYNSVFKSRLTISKDNSKNQVSLKLSSVTAADTAVYYCARERPLTGVMDYWGQGTLVTVSS
VL: DIVLTQSPDSLAVSLGERATINCRASESVDYSGNSFMHWFQQKPGQPPKLLIYRASNLESGIPDRFSGSGSRTDFTLTISSLQAEDVAVYYCHQSNWDPPTFGGGTKVEIK
binding result [3]: binds

Further lines, with some results ahead:

binding result [3]: binds
B3: 23ME-00610_A33R (antibody, V domains shown)
VH: EVQLQESGPGLVKPSETLSLTCTVSGFSLTNYRVSWVRQPPGKGLEWLGVMWAGGGTNYNSVFKSRLTISKDNSKNQVSLKLSSVTAADTAVYYCARERPLTGVMDYWGQGTLVTVSS
VL: DIVLTQSPDSLAVSLGERATINCRASESVDYSGNSFMHWFQQKPGQPPKLLIYRASNLESGIPDRFSGSGSRTDFTLTISSLQAEDVAVYYCHQSNEDPPTFGGGTKVEIK

binding result [2]: no binding (tested: up to 200 nM)
B4: 23ME-00610 (antibody, V domains shown)
VH: EVQLQESGPGLVKPSETLSLTCTVSGFSLTNYAVSWVRQPPGKGLEWLGVMWAGGGTNYNSVFKSRLTISKDNSKNQVSLKLSSVTAADTAVYYCARERPLTGVMDYWGQGTLVTVSS
VL: DIVLTQSPDSLAVSLGERATINCRASESVDYSGNSFMHWFQQKPGQPPKLLIYRASNLESGIPDRFSGSGSRTDFTLTISSLQAEDVAVYYCHQSNEDPPTFGGGTKVEIK
binding result [4]: binds
Kd (hCD200R1-iso4-Ref ECD [5]): 0.1 nM
